Reference: publication PMC4525183, “Snf1/AMP-activated protein kinase activates Arf3p to promote invasive yeast growth via a non-canonical GEF domain” (Nature Communications, 2015)

T1: GST-Snf1-C (a.a. 311–633) (S. cerevisiae, UniProt P06782 311-633)
T1 construct: Snf1p, S. cerevisiae, C-terminal regulatory domain, a.a; 311–633; Vector pGEX4T-1; also called C-terminal regulatory domain of Snf1p; source: E. coli BL21 (DE3), purified (glutathione-Sepharose 4B)
T1 sequence (looked up): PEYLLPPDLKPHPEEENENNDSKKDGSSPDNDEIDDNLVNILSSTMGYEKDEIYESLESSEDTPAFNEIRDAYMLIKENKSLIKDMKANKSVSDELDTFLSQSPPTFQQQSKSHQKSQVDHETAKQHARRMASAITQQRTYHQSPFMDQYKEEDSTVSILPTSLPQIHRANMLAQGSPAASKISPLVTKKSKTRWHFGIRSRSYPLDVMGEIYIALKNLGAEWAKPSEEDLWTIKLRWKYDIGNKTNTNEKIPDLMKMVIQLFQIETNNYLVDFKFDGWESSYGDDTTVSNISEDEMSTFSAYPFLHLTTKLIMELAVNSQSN

B1: GST-Snf1-C1 (a.a. 392–518) (domain or fragment, S. cerevisiae, UniProt P06782 392-518, looked up)
chain: LIKDMKANKSVSDELDTFLSQSPPTFQQQSKSHQKSQVDHETAKQHARRMASAITQQRTYHQSPFMDQYKEEDSTVSILPTSLPQIHRANMLAQGSPAASKISPLVTKKSKTRWHFGIRSRSYPLDV
notes: Snf1p, S. cerevisiae, a.a; Vector pGEX4T-1; source: E. coli BL21 (DE3), purified (glutathione-Sepharose 4B)
B2: His-Arf3^T31N (natural protein, S. cerevisiae, UniProt P40994 1-183, looked up)
chain: MGNSISKVLGKLFGSKEMKILMLGLDKAGKNTILYKLKLNKIKTSTPTVGFNVETVTYKNVKFNMWDVGGQQRLRPLWRHYFPATTALIFVIDSSARNRMEEAKEELYSIIGEKEMENVVLLVWANKQDLKDAMKPQEVSDFLELEKNLKNQPWCVIGSNALSGQGLVEGLSWISNNTNVPKK
notes: Arf3p, S. cerevisiae; T31N; plasmid pET32a-ARF3 (T31N); pET32a usually adds thioredoxin, His and S tags before the insert

Key:
His-Arf3^T31N = biological target: B2; assay: pull-down; GST fusions on glutathione-Sepharose 4B beads, His-tagged protein in solution (His-Arf3 loaded with GDP or GTPγS); 50 mM Tris-HCl pH 7.5, 150 mM NaCl, 1% Triton X-100, 1 mM DTT, 10 mM MgCl2; 1 h, 4 °C; anti-His blot; conditions: both partners purified
[1] = biological target: T1, GST-Snf1-C (a.a. 311–633); assay: as above; conditions: both partners purified

| Binder | binding result (His-Arf3^T31N) | binding result [1] |
| --- | --- | --- |
| B1 | binds |  |
| B2 |  | binds |
